Target: coagulation factor IXa (FIXa) (Homo sapiens, UniProt P00740;P00740 P00740:47-191,P00740:227-461)
Assay: KD comparable to 9.3t

## AUGGGGACUAUACCGGCAAUCGUGCAUCCCCAU (ssRNA, 2'-F pyrimidines, 2'-OH purines) [9.20t]
  binding result: binds

Reference: patent US20030083294, “Modulators of pharmacological agents” (published 2003)
